Laboratory results published in the supplement of paper PMC9170038.

Tested on: MS2 coat protein
Assay: apparent KD of MS2 coat protein; designed switch direction (-1 OFF switch, 1 ON switch): -1; higher = weaker reporter binding
Procedure, shortened: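 Designed RNA switches with common flanks were transcribed on Illumina chips by stalled E. coli RNA polymerase and titrated with SNAP-549-labelled MS2 coat protein, from 0.7 or 1.5 nM doubling to 3 µM, in Tris-HCl pH 7.5 buffer with KCl, MgCl2, BSA, DTT, tRNA and Tween-20. Steps lasted 0.8–1.5 h (lowest) to 10–20 min (highest). Titrations ran without input, with 200 uM small-molecule ligand, or with an oligonucleotide input. Normalised cluster fluorescence was curve-fitted, and apparent KD is the per-design median over clusters.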

[1] = input ligand: microRNA oligo, concentration not stated
[2] = Eterna round: R95, input ligand: FMN 200 uM
[3] = Eterna round: R95, input ligand: microRNA oligo, concentration not stated
[4] = Eterna round: R95, input ligand: none

| Sequence | apparent KD of MS2 coat protein (input ligand: FMN 200 uM) | apparent KD of MS2 coat protein [1] | apparent KD of MS2 coat protein (input ligand: none) | apparent KD of MS2 coat protein [2] | apparent KD of MS2 coat protein [3] | apparent KD of MS2 coat protein [4] |
| --- | --- | --- | --- | --- | --- | --- |
| CUAAAUCAUGUAGGAUAUGCGUGGCGAAGCUAUGCAGAAGGACAUGAGGAUCACCCAUGUCUUUCCGUCUGCGUACAGACGGGA [JL ENG1 1.20] (Eterna round: R96, puzzle: Exclusion NG 1) | 151 nM | 14.5 nM | 21.2 nM |  |  |  |
| CUAAAUCAUGUAGGAUAUGCGUGGCGAAGCUAUGCAGAAGGACAUGAGGAUCACCCAUGUUCUUCCGUCUGCGUACAGACGGAA [JL ENG1 1.18] (Eterna round: R96, puzzle: Exclusion NG 1) | 316 nM | 28.7 nM | 38 nM |  |  |  |
| CUAAUUAGAGGAUAUACAUGAGGAUCACCCAUGUUCUUCAAGUCGCCAACGGCAUAACGUAGAAGGCUGAGUGG [Eternabot (L1) Solution 32] (Eterna round: R97, puzzle: Exclusion 3) | 26.4 nM |  | 25.8 nM |  |  |  |
| CUACUAGAGACGCGUGGGAACAUGAGGAUCACCCAUGUCAAUGGAGUUUAAACAGGCCCGUCGUUUUGCUCGUCGUG [Eternabot (L2) Solution 41] (Eterna round: R97, puzzle: Sensor, turn-off variant 1) | 113 nM |  | 132 nM |  |  |  |
| CUACUGAAGCUUUGCUUUAGUCGUACAUGAGGAUCACCCAUGUAGGAUAUGGUAGGCUUUGCUUACUAGAAGGAUAGAGUGAUC [salish99_ExNG3_r04_601] (Eterna round: R96, puzzle: Exclusion NG 3) | 80.9 nM | 38.3 nM | 58.1 nM |  |  |  |
| CUAGAUCUUCGGAUCUAGUACAUGAGGAUCACCCAUGUUACGAGUUGAUCCUCAUACAAGCUUUUUGCUCGUCUUAU [Sensor v3 - Turn-off variant 1 - 25] (puzzle: Sensor v3, turn-off variant 1) |  |  |  | 16.5 nM | 9.03 nM | 13.9 nM |
| CUAGCGAAUGUAGGAUAUCGGACUGUUUCAGUCUGAGAAGGACAUGAGGAUCACCCAUGUAUAGCUACGUGAGUAGCACGCUAG [JL ENG1 3.90] (Eterna round: R96, puzzle: Exclusion NG 1) | 27.6 nM | 16.1 nM | 21.7 nM |  |  |  |
| CUAGGGCGCAUUUAAACGCCCUAACAUGAGGAUCACCCAUGUCAGGAUAUGUAGGCAAAGACCCUACAGAAGGGACAUGUCCUA [Lainceso] (Eterna round: R96, puzzle: Exclusion NG 3) | 264 nM | 57.1 nM | 72.7 nM |  |  |  |
| CUAUUCCGAGGAUAUACAUGAGGAUCACCCAUGUCGGGCCUCUGCGUUUAGCGCGUAAGUAGAAGGUGGGUUUC [JL Riri mod 8] (puzzle: Exclusion 3) |  |  |  |  | 27.1 nM |  |
| CUAUUUUUCGCAGGAUAUGCAUCUCCUUUAUUAGCAGAAGGGCGUUAAACAUGAGGAUCACCCAUGUAUUGUGGUGCUUUUUUC [JR_ExcNG1_Sub059] (Eterna round: R96, puzzle: Exclusion NG 1) | 214 nM | 54.3 nM | 57.9 nM |  |  |  |
| CUCAGACAUGAGGAUCACCCAUGUCAGGAUAUCGUCUACCUGUGGAAACACAGGUAGACGAGAAGGGAUGUGUU [SS1 Omei 3 v1] (puzzle: Exclusion 1) |  |  |  |  | 43.5 nM |  |
| CUCAUGCCUGAGGAUAUGCUGUACAAAAGUACUGCAGAAGGCAGAACAUGAGGAUCACCCAUGUGGCGAAAGCC [Omei Ex G1] (Eterna round: R97, puzzle: Exclusion 6) | 549 nM |  | 106 nM |  |  |  |
| CUCAUGUGAGGAUAUCACCCAAGAGUGAGCAAUCACUAUCAUGAGAAGGCACAUGAGGAUCACCCAUGUUAAAA [Xesoer] (Eterna round: R97, puzzle: Exclusion 4) | 11.5 nM |  | 57.7 nM |  |  |  |
| CUCAUGUGAGGAUAUCAGUAGUAAAAAAAUAAAAUUACUACUGAGAAGGCACAUGAGGAUCACCCAUGUGCCAA [EX4 337: Super Stable 37] (Eterna round: R96, puzzle: Exclusion 4) |  | 12.8 nM |  |  |  |  |
| CUCAUGUGAGGAUAUGAGUUAGGGCGAGAGCCCUAUGAAAAUUAGAAGGCACAUGAGGAUCACCCAUGUGAGAA [Rerige] (Eterna round: R97, puzzle: Exclusion 4) | 211 nM |  | 169 nM |  |  |  |
| CUCAUGUGAGGAUAUGUGAUCUGCCUUCUAUGUAGAUGAUCACAGAAGGCACAUGAGGAUCACCCAUGUAGAUC [Ex4 - 3 - 27] (puzzle: Exclusion 4) |  |  |  |  | 69.2 nM |  |

| Sequence | apparent KD of MS2 coat protein (input ligand: FMN 200 uM) | apparent KD of MS2 coat protein [1] | apparent KD of MS2 coat protein (input ligand: none) | apparent KD of MS2 coat protein [2] | apparent KD of MS2 coat protein [3] | apparent KD of MS2 coat protein [4] |
| --- | --- | --- | --- | --- | --- | --- |
| CUCCAGCAAGGAUAUACAUAGUGACGUCUGUUUAAUCUUAAACAUGAGGAUCACCCAUGUAGAAGGUGCGUCAC [Biqugeza] (Eterna round: R97, puzzle: Exclusion 2) | 19.4 nM |  | 17.1 nM |  |  |  |
| CUCCAGCAAGGAUAUACGUGUCUAAGAAGAGGUCUUAUGCUACAUGAGGAUCACCCAUGUAGAAGGUGCGGACA [EX2 C.2] (Eterna round: R97, puzzle: Exclusion 2) | 14.4 nM |  | 15.4 nM |  |  |  |
| CUCCCUCGGGUUAGGAUAUGCUACUGGCUUCAGAUGCAGAAGGAACAUGAGGAUCACCCAUGUACCAAAUAAAA [BmEX4 B.15] (Eterna round: R97, puzzle: Brourd's mod of Exclusion 4) | 35 nM |  | 14.5 nM |  |  |  |
| CUCCUCAUGGCGCCUAAACACAUGAGGAUCACCCAUGUACAGGCCUUUUGCCGUCUUAUAAUAAAACCGAGGAUGCG [Lainxezabe] (puzzle: Sensor v3, turn-off variant 1) |  |  |  | 29.6 nM | 223 nM | 26.8 nM |
| CUCCUGUGAGGAUAUGUAGGCCGCCCGGUCAGCCGAGCGAGACAGAAGGCACAUGAGGAUCACCCAUGUGACUC [EX4 B.13] (Eterna round: R97, puzzle: Exclusion 4) | 42.2 nM |  | 16.6 nM |  |  |  |
| CUCGUGUAAGGAUAUGUACCGACACCGCUAAAGCGGCUCCGACAGAAGGUACAUGAGGAUCACCCAUGUACUGC [EX4 B.2] (Eterna round: R97, puzzle: Exclusion 4) | 25.9 nM |  | 20.3 nM |  |  |  |
| CUCUUGGCAGGAUAUGCUUUUUUAGACAUGAGGAUCACCCAUGUGAUGAAUAUUGGGUUCGCAGAAGGGCCUGAAU [JR_E5_Sub040] (puzzle: Exclusion 5) |  |  |  |  | 48.4 nM |  |
| CUCUUGUUAGGAUAUCAAACUGGCGGCGGAGCCGGCAGUAGUGAGAAGGGACAUGAGGAUCACCCAUGUAAGAA [Veeder] (puzzle: Exclusion 4) |  |  |  |  | 55.1 nM |  |
| CUGAACCCGGUAGGAUAUAUUGUGGGCAGGCGUGGAACGACAUGAGGAUCACCCAUGUAAUUUAGGUAGAAGGGCCGAGAGAUU [Excl-NG2-LRO13] (Eterna round: R96, puzzle: Exclusion NG 2) | 22.9 nM | 21.7 nM | 37.3 nM |  |  |  |
| CUGACGGCAGGAUAUACAUGAGGAUCACCCAUGUAAAUUUUUCGUUUAACUUGAAUGUGUAGAAGGGCCCAACC [Ex3 #79] (Eterna round: R97, puzzle: Exclusion 3) | 19.6 nM |  | 21.5 nM |  |  |  |
| CUGAGCAGACGGAGAUCCAACAUGAGGAUCACCCAUGUCUCAAAAGCUUUUUGCUCAUCUUAUCCUCCUCUGUUCUC [Edcesobi] (puzzle: Sensor v3, turn-off variant 1) |  |  |  | 20.5 nM | 336 nM | 17.9 nM |
| CUGAGCAGACGGAGAUCCAACAUGAGGAUCACCCAUGUCUCAAAAGCUUUUUGCUUGUCUUAUUCUCCUCUGUUCAC [Enradibe] (puzzle: Sensor v3, turn-off variant 1) |  |  |  | 13.2 nM | 31.6 nM | 11.2 nM |
| CUGAGCUGAGGAUAUACAUGAGGAUCACCCAUGUGUUCCAGCUUGCGUACAGGCAGAUGUAGAAGGCAGUUCGG [JL-ex3-3.35 Brourd mod] (puzzle: Exclusion 3) |  |  |  |  | 38.9 nM |  |
| CUGAGGUAGCGGUCCUAUGACAUGAGGAUCACCCAUGUACCUUGCUUCGAGCUUUUUGCUCGUCUUAUGAUUCUCAG [Mat - Sensor v3 - turn-off var 1 - JL Mod - D32] (puzzle: Sensor v3, turn-off variant 1) |  |  |  | 114 nM | 405 nM | 162 nM |
| CUGAGUAGUCAGGAUAUGUGGUACAAAAGUACUGCAGAAGGGAUUACAUGAGGAUCACCCAUGUUAUCUUCAUG [Omei Ex6 B19] (Eterna round: R97, puzzle: Exclusion 6) | 368 nM |  | 144 nM |  |  |  |
| CUGAGUCUAGGAUAUACAUGAGGAUCACCCAUGUAAAGUAGCUUGCGUACAGGCAGAUGUAGAAGGAGAUUCGG [Mod of JL 10 - Jieux - Exclusion 3] (Eterna round: R97, puzzle: Exclusion 3) | 33.2 nM |  | 24.6 nM |  |  |  |
